Laboratory results published in paper PMC3323732 (Journal of Molecular Biology, 2011).

T1: myocilin C-terminal olfactomedin domain (myoc-OLF), cleaved from MBP, wild type (human, UniProt Q99972 228-504)
T1 sequence (looked up): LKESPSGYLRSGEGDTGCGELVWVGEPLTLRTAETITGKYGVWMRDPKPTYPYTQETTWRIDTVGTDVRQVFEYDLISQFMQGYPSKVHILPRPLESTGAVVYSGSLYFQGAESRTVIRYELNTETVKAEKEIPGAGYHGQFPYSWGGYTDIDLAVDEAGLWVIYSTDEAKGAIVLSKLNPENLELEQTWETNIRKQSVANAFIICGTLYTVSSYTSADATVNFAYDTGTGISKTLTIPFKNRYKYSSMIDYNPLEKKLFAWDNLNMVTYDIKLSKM


Columns and labels:
[1] = target: the molecule itself; experiment: thioflavin T fluorescence of fibril formation
[2] = target: T1, myocilin C-terminal olfactomedin domain …; experiment: seeded fibril formation followed by thioflavin T fluorescence
SEC = target: the molecule itself; experiment: SEC

Binder	binding result [1]	binding result [2]	binding result (SEC)
myoc-OLF(Y437H), cleaved from MBP (domain or fragment, human, UniProt Q99972 228-504, looked up) LKESPSGYLRSGEGDTGCGELVWVGEPLTLRTAETITGKYGVWMRDPKPTYPYTQETTWRIDTVGTDVRQVFEYDLISQFMQGYPSKVHILPRPLESTGAVVYSGSLYFQGAESRTVIRYELNTETVKAEKEIPGAGYHGQFPYSWGGYTDIDLAVDEAGLWVIYSTDEAKGAIVLSKLNPENLELEQTWETNIRKQSVANAFIICGTLHTVSSYTSADATVNFAYDTGTGISKTLTIPFKNRYKYSSMIDYNPLEKKLFAWDNLNMVTYDIKLSKM	binds	binds	–
MBP-OLF(P370L) (domain or fragment, human, UniProt Q99972 228-504, looked up) LKESPSGYLRSGEGDTGCGELVWVGEPLTLRTAETITGKYGVWMRDPKPTYPYTQETTWRIDTVGTDVRQVFEYDLISQFMQGYPSKVHILPRPLESTGAVVYSGSLYFQGAESRTVIRYELNTETVKAEKEIPGAGYHGQFLYSWGGYTDIDLAVDEAGLWVIYSTDEAKGAIVLSKLNPENLELEQTWETNIRKQSVANAFIICGTLYTVSSYTSADATVNFAYDTGTGISKTLTIPFKNRYKYSSMIDYNPLEKKLFAWDNLNMVTYDIKLSKM	–	–	binds
MBP-OLF(Y437H) (domain or fragment, human, UniProt Q99972 228-504, looked up) LKESPSGYLRSGEGDTGCGELVWVGEPLTLRTAETITGKYGVWMRDPKPTYPYTQETTWRIDTVGTDVRQVFEYDLISQFMQGYPSKVHILPRPLESTGAVVYSGSLYFQGAESRTVIRYELNTETVKAEKEIPGAGYHGQFPYSWGGYTDIDLAVDEAGLWVIYSTDEAKGAIVLSKLNPENLELEQTWETNIRKQSVANAFIICGTLHTVSSYTSADATVNFAYDTGTGISKTLTIPFKNRYKYSSMIDYNPLEKKLFAWDNLNMVTYDIKLSKM	–	–	binds
MBP-OLF(245-504) (domain or fragment, human, UniProt Q99972 245-504, looked up) CGELVWVGEPLTLRTAETITGKYGVWMRDPKPTYPYTQETTWRIDTVGTDVRQVFEYDLISQFMQGYPSKVHILPRPLESTGAVVYSGSLYFQGAESRTVIRYELNTETVKAEKEIPGAGYHGQFPYSWGGYTDIDLAVDEAGLWVIYSTDEAKGAIVLSKLNPENLELEQTWETNIRKQSVANAFIICGTLYTVSSYTSADATVNFAYDTGTGISKTLTIPFKNRYKYSSMIDYNPLEKKLFAWDNLNMVTYDIKLSKM	–	–	binds
MBP-OLF(245-455) (domain or fragment, human, UniProt Q99972 245-455, looked up) CGELVWVGEPLTLRTAETITGKYGVWMRDPKPTYPYTQETTWRIDTVGTDVRQVFEYDLISQFMQGYPSKVHILPRPLESTGAVVYSGSLYFQGAESRTVIRYELNTETVKAEKEIPGAGYHGQFPYSWGGYTDIDLAVDEAGLWVIYSTDEAKGAIVLSKLNPENLELEQTWETNIRKQSVANAFIICGTLYTVSSYTSADATVNFAYDT	–	–	binds
